Columns and labels:
[1] = biological target: dipeptidyl peptidase IV (DPP4), the MERS-CoV receptor, His-tagged (human) (UniProt P27487); test: ELISA, spike coated, His-tagged hDPP4 titrated
[2] = biological target: dipeptidyl peptidase IV (DPP4), the MERS-CoV receptor, His-tagged (human) (UniProt P27487)

dipeptidyl peptidase IV (DPP4), the MERS-CoV receptor, His-tagged (human), sequence (P27487 29-766 limits assumed): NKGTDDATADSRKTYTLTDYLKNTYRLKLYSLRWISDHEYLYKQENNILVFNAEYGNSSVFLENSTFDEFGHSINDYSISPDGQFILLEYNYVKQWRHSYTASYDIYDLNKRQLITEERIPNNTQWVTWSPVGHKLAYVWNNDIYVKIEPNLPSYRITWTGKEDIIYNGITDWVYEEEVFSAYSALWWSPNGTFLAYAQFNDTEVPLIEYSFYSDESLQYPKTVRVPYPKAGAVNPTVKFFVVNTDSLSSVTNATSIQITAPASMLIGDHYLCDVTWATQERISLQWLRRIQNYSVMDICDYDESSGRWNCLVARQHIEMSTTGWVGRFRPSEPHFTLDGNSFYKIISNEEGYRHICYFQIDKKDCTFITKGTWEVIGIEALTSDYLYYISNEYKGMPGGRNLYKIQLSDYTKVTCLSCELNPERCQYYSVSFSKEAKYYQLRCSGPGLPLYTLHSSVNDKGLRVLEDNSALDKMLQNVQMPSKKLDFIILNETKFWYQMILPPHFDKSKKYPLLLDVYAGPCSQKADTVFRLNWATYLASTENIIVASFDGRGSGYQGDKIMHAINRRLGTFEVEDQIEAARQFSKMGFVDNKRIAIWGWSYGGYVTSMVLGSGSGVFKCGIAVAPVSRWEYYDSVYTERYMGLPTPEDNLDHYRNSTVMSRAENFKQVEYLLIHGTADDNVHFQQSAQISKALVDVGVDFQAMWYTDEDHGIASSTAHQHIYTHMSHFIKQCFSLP

Which results are given for “wild-type BV2361 protein (SEQ ID NO: 2), native SARS-CoV-2 Spike (S) polypeptide (from UniProt P0DTC2 14-1273) (other; other documents disagree on this pair)”?
EC50 [1]: > 5 µg/mL; IC50 [2]: > 5 µg/mL

Source: US20250025549A1
